Data reported in patent publication US7057012B1, “PTH functional domain conjugate peptides, derivatives thereof and novel tethered ligand-receptor molecules” (The General Hospital Corporation, priority 1998, dated 2006).
Where two headings read alike, the source gives them in different places. No end group written: not given here.

What was measured:
human PTH-1 receptor = target: T1, human PTH-1 receptor (Homo sapiens, UniProt Q03431); experiment: cAMP accumulation in COS cells expressing the human PTH-1 receptor; type: cell-based; details: for cAMP accumulation as compared to basal levels in un-stimulated cells: 60 min at 21° C.
T1 sequence (Q03431 27-593): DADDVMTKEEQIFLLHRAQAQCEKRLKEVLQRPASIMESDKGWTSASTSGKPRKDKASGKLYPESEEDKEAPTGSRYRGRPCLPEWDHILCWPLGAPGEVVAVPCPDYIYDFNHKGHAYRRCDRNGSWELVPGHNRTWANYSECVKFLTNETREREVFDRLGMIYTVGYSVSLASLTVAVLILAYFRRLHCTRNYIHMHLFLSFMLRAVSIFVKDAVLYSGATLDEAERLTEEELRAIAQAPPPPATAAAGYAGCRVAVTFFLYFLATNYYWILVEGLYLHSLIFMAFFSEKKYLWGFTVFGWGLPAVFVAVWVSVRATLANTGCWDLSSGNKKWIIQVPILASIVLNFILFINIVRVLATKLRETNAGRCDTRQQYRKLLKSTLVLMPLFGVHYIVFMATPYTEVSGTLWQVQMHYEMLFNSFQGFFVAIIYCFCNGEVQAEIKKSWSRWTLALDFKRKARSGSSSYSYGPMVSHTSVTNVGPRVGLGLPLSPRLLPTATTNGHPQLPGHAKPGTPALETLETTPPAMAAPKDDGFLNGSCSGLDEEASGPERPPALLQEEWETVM
Method: Intracellular cAMP accumulation is measured as described previously (Abou-Samra et al., J. Biol. Chem. 262:1129, 1986). Cells grown in 24-well plates are rinsed with culture medium containing 0.1% BSA and 2 mM IBMX. The cells are then incubated with an S-(L)n-B compound or derivatives thereof for 60 min. at 21° C. The supernatant is removed and the cells immediately frozen by placing the whole plate in dry ice powder. Intracellular cAMP is extracted by thawing the cells in 1 ml of 50 mM HCl and analyzed by a specific radioimmunoassay using an anti-cAMP antibody (e.g., Sigma, St. Louis, Mo.). A cAMP analog (2′-O-monosuccinyl-adenosine 3′:5′-cyclic monophosphate tyrosyl methyl ester, obtained from Sigma) which is used a tracer for cAMP is iodinated by the chloramine T method. Free iodine is removed by adsorbing the iodinated cAMP analog onto a C18Sep-pak cartridge (Waters, Milford, Mass.). After washing with dH20, the iodinated cAMP analog is eluted from the Sep-pak Cartridge with 40% acetonitrille (ACN) and 0.1% trifluoroacetic acid (TFA). The iodinated cAMP analog is lyophilized, reconstituted in 1 ml 0.1% TFA, and injected into a C18 reverse phase HPLC column (Waters). The column is equilibrated with 10% ACN in 0.1% TFA, and eluted with gradient of 10–30% ACN in 0.1% TFA. This allows separation of the mono-iodinated cAMP analog from the non-iodinated cAMP analog. The tracer is stable for up to 4 months when stored at −20° C. The standard used for the assay, adenosine 3′:5′-cyclic monophosphate, may be purchased from Sigma. Samples (1–10 µl of HCl extracts) or standards ([…]) are diluted in 50 Mm Na-acetate (pH 5.5), and acetylated with 10 μl of mixture of triethylamine and acetic anhydride (2:1 vol:vol). After acetylation, cAMP antiserum (100 μl) is added from a stock solution (1:4000) made in PBS (pH 7.4), 5 mM EDTA and 1% normal rabbit serum. The tracer is diluted in PBS (pH 7.4) with 0.1% BSA, and added (20,000 cpm/tube). The assay is incubated at 4° C. overnight. […] The supernatant is removed and the bound radioactivity is counted in a gamma-counter (Micromedic). […]
In order to screen for agonist activity, functional domain conjugate peptides of the invention were utilized in in vitro assays designed to measure cellular response via cAMP accumulation. Intracellular cAMP accumulation is measured as described previously (Abou-Samra et al., J. Biol. Chem. 262:1129, 1986).
Cells grown in 24-well plates are rinsed with culture medium containing 0.1% BSA and 2 mM IBMX. […] Intracellular cAMP is extracted by thawing the cells in 1 ml of 50 mM HCl and analyzed by a specific radioimmunoassay using an anti-cAMP antibody (e.g., Sigma, St. Louis, Mo.). […]

wildtype PTH receptor = target: T2, wildtype PTH receptor (Rattus norvegicus, UniProt P25961); details: read-out: EC50, cAMP formation, cited from earlier work
T2 sequence (P25961 27-591): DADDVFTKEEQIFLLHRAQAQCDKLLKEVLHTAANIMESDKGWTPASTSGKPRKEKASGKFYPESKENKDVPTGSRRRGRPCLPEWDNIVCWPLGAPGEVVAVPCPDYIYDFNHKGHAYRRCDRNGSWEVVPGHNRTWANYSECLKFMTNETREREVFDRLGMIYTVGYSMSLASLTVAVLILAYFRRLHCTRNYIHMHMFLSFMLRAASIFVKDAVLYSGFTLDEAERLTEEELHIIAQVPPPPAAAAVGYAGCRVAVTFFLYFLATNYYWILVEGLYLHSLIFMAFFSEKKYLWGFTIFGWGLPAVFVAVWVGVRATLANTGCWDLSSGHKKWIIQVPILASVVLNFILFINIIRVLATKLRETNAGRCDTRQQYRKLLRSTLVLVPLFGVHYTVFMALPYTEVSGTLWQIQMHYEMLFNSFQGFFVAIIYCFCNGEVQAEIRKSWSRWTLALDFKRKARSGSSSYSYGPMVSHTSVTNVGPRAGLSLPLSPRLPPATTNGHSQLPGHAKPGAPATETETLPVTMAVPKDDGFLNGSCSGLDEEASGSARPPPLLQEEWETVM

truncated PTH receptor = target: T3, truncated PTH receptor (Rattus norvegicus, UniProt P25961); details: cited from earlier work
T3 sequence (P25961 with tags, fused parts or gaps): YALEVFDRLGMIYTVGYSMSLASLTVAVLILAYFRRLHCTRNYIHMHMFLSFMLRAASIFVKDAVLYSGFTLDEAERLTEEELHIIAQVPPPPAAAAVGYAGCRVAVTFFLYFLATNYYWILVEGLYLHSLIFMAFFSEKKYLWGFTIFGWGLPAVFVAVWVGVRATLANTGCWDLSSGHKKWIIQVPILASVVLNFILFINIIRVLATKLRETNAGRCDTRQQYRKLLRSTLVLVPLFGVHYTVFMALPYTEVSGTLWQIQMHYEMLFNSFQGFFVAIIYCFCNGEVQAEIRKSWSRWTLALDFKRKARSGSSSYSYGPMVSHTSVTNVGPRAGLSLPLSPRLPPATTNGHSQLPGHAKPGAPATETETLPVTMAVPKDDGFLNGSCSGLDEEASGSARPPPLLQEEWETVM

PTH (1–5)-(Gly)9-PTH(15–31) (AVSEIGGGGGGGGGLNSMERVEWLRKKLQDV; modified PTH sequence) [PG9, S-(L)n-B peptide: PTH(1–5), linker (Gly)9, PTH(15–31)]
cAMP accumulation as compared to basal levels in un-stimulated cells (human PTH-1 receptor): increased levels of cAMP accumulation

PTH (1–9)-(Gly)7-PTH(17–31) (AVSEIQLMHGGGGGGGSMERVEWLRKKLQDV; modified PTH sequence) [PG7, S-(L)n-B peptide: PTH(1–9), linker (Gly)7, PTH(17–31)]
cAMP accumulation as compared to basal levels in un-stimulated cells (human PTH-1 receptor): increased levels of cAMP accumulation

PTH(1–9)-(Gly)5-PTH(15–31) (AVSEIQLMHGGGGGLNSMERVEWLRKKLQDV; modified PTH sequence) [PG5, S-(L)n-B peptide: PTH(1–9), linker (Gly)5, PTH(15–31)]
cAMP accumulation as compared to basal levels in un-stimulated cells (human PTH-1 receptor): increased levels of cAMP accumulation

PTH(1–14) (AVSEIQLMHNLGKH; not fully specified (C-terminus); listed as Homo sapiens) [N-terminal fragment (1–14) of parathyroid hormone]
EC50 (wildtype PTH receptor; intact receptor): ~100 µM | EC50 (truncated PTH receptor; read-out: EC50, cAMP formation): ~100 µM

PTH(1–34)
EC50 (wildtype PTH receptor; wildtype receptor): ~0.003 µM | potency, cAMP formation (truncated PTH receptor): severly diminished

[Ala^1] PTH(1–14)
bioactivity over the background level of bioactivity of the native PTH(1–14) peptide (human PTH-1 receptor; serine at position one replaced by alanine): measurable increase in bioactivity
